Experimental data as given in patent US20260274933A1 (Innovent, published 2026).

Key:
human VEGF165 (R&D) [1] = biological target: T1, human VEGF165 (R&D) (human, UniProt P15692-4 27-191); test: BLI (ForteBio), bivalent binding
T1 construct: Antigen of the ForteBio assay

human VEGF165 (R&D) [2] = biological target: T1, human VEGF165 (R&D); test: BLI (ForteBio), monovalent binding
human VEGF165 (R&D) [3] = biological target: T1, human VEGF165 (R&D); test: BLI (ForteBio), bivalent binding; * dissociation constant exceeding ForteBio detection limits
[4] = biological target: T2, biotin-labeled VEGF A165 (ACRO, Catalog No. VE5-H8210) (human, UniProt P15692-4 27-191, biotin-labeled); test: blocking ELISA: biotin VEGF A165 captured on streptavidin, binding of VEGFR-Fc blocked; value printed as EC50 in the table under the curves, unit from the axis
T2 construct: also called hVEGF A
T2 sequence (P15692 other isoform, or with tags, fused parts or gaps limits assumed): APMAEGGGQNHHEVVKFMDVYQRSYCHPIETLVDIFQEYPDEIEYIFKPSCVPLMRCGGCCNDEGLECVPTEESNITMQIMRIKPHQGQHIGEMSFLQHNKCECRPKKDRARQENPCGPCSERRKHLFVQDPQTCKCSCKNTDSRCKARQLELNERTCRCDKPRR
Description: SA (Thermo, Catalog No. 21125) was diluted to 1 μg/mL, and 100 μL/well of SA was plated in a microplate at 4° C. overnight. The plate was washed 3 times with PBST and blocked with 3% BSA for 1.5 h. […] The plate was washed 6 times with PBST, the color development was performed with TMB for 5 min, and OD450 nm was read after stopping.

T1 sequence (P15692 other isoform, or with tags, fused parts or gaps limits assumed): as above

Kd (human VEGF165 (R&D) [1]): 0.843 nM
kon (human VEGF165 (R&D) [1]): 237000 M⁻¹ s⁻¹
Kd (human VEGF165 (R&D) [2]): 6.11 nM
koff (human VEGF165 (R&D) [2]): 0.00116 s⁻¹
kon (human VEGF165 (R&D) [2]): 189000 M⁻¹ s⁻¹
koff (human VEGF165 (R&D) [3]): ≤ 0.0002 s⁻¹
EC50 [4]: 0.0149 µg/mL
B1: LA42F8 (VEGFA VHH) (VHH)
VHH: QLQLVESGGGLVQPGGSLRLSCAASGFNLDYYPIGWFRQAPGKEREGVSCISSVGSTNYADSVKGRFTISRDNAKNTVYLQMNSLKPEDTAVYYCAADPLCSALILPPPFLSWGQGTQVTVSS
notes: Alpaca anti-VEGF A VHH; also called LA42F8 supernatant
